In article PMC12398788, “Molecular basis of the autoregulatory mechanism of motor neuron-related splicing factor 30”:
Substitutions are numbered along the chain they refer to.

How the values were obtained:
SPF30 FSV3A = biological target: T1, SPF30 FSV3A (human, UniProt O75940 1-238, F199A;S201A;V209A); experiment: EMSA; 200 or 400 ng protein; distinct mobility from WT; EMSA: 40 mM Tris-HCl pH 7.4, 30 mM KCl, 1 mM MgCl2, 0.01% IGEPAL CA-630, 25 °C 30 min, 20 fmol RNA in 12 µl; UV cross-linking: 50 mM Tris-HCl pH 7.4, 150 mM NaCl, 0.5% IGEPAL CA-630, 4 °C 4 h; settings: protein: recombinant; tags: N-terminal 6xHis; label: biotin; stem-loop predicted at intron 3/exon 4a/exon 4
T1 sequence: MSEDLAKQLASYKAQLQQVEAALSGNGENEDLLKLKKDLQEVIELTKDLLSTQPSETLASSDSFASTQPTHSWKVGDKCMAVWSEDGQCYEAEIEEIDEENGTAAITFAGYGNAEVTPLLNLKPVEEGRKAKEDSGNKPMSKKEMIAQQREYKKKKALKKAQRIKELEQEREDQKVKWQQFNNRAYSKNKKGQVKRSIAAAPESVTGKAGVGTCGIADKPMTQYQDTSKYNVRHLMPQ

SPF30 ΔC5 = biological target: T2, SPF30 ΔC5 (human, UniProt O75940 1-217); experiment: EMSA; 200 or 400 ng protein; EMSA: 40 mM Tris-HCl pH 7.4, 30 mM KCl, 1 mM MgCl2, 0.01% IGEPAL CA-630, 25 °C 30 min, 20 fmol RNA in 12 µl; UV cross-linking: 50 mM Tris-HCl pH 7.4, 150 mM NaCl, 0.5% IGEPAL CA-630, 4 °C 4 h; settings: protein: recombinant; tags: N-terminal 6xHis; label: biotin; stem-loop predicted at intron 3/exon 4a/exon 4
T2 sequence: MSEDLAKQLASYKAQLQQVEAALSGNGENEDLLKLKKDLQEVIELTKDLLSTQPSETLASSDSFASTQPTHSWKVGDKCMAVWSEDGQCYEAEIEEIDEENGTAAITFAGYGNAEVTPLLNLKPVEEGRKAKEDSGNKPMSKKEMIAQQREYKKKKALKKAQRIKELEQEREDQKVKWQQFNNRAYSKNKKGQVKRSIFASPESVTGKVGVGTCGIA

SPF30 ΔC1 = biological target: T3, SPF30 ΔC1 (human, UniProt O75940 1-164); experiment: as above; settings: protein: recombinant; tags: N-terminal 6xHis; label: biotin; stem-loop predicted at intron 3/exon 4a/exon 4
T3 sequence: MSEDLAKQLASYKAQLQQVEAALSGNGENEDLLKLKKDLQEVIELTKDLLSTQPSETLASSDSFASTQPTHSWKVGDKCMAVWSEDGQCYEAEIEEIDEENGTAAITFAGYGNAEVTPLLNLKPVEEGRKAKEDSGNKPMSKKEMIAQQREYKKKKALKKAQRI

6xHis-SPF30 WT = biological target: T4, 6xHis-SPF30 WT (human, UniProt O75940 1-238); experiment: as above; settings: protein: recombinant; tags: N-terminal 6xHis (pCold I); C-terminal FLAG from primer KI-125; label: biotin; stem-loop predicted at intron 3/exon 4a/exon 4
T4 sequence: T1 sequence with A199F, A201S, A209V

SPF30 197-217 peptide = biological target: T5, SPF30 197-217 peptide (human, UniProt O75940 197-217); experiment: EMSA; EMSA: 40 mM Tris-HCl pH 7.4, 30 mM KCl, 1 mM MgCl2, 0.01% IGEPAL CA-630, 25 °C 30 min, 20 fmol RNA in 12 µl; UV cross-linking: 50 mM Tris-HCl pH 7.4, 150 mM NaCl, 0.5% IGEPAL CA-630, 4 °C 4 h; settings: label: biotin; stem-loop predicted at intron 3/exon 4a/exon 4
T5 chain: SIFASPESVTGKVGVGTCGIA

B1: BT-RNA WT (ssRNA)
RNA: CUGCUUACAGCCAUGAUAUCUUUACAGGUGUUAUGAAGCGG
SPF30 FSV3A
  binding result: binds
SPF30 ΔC5
  binding result: binds
SPF30 ΔC1
  binding result: no binding
6xHis-SPF30 WT
  binding result: binds
SPF30 197-217 peptide
  binding result: no binding
